Measured values published in patent US20210094988A1 (UNIVERSITY OF FLORIDA RESEARCH FOUNDATION, published 2021).

Biological target: the molecule itself
Assay: X-ray crystallography, homodimer in the crystal

B1: recombinant SP-free Coprinus comatus Y3 protein (monomer) (other)
chain: QDPLSCYDNFGNRDVAACARFIDDFCDTLTPNIYRPRDNGQRCYVVNGHKCDFTVFNTNNGGSPIRASTPNCKTVLRAAANRCPTGGRGKINPSAPFLFAIDPNDGDCSTDF
modifications: pyroglutamic acid (PCA) formed from Gln19; four intramolecular disulfide bridges Cys24-Cys101, Cys36-Cys69, Cys61-Cys126, Cys44-Cys90
notes: also called recombinant Y3; mature recombinant Y3 protein
- binding result: binds
